Test results from patent US20260209266A1.

Assays:
[1] = biological target: Protein A (immobilized on a chromatography column) (UniProt P38507); experiment: Protein A chromatography (rProtein A FF), step gradient, 20 mM sodium citrate, 1 M NaCl
[2] = biological target: Protein A (immobilized on a chromatography column) (UniProt P38507); experiment: Protein A chromatography, linear pH gradient

Row | Substance | elution pH from Protein A column [1] [pH] | elution pH from Protein A column [2] [pH]
1 | differentially modified heterodimeric human IgG4 (Fc/ΔAdpFc) (from UniProt P01861 99-220; P01861 99-220) | 4 | 
2 | differentially modified heterodimeric human IgG2 Fc/ΔAdpFc (from UniProt P01859 99-219; P01859 99-219) | 4.5 | 
3 | IgG1 heterodimer having two IgG1 heavy chains identical but for an H435R/Y436F dipeptide modification in one CH3 domain (antibody) |  | 3.9
